Assay results from patent US6969517 (dated 2005).
Numbering of substitutions follows the chain as printed. Where two headings read alike, the source gives them in different places.

Columns and labels:
EpCAM (KSA) [1] = molecular target: T1, EpCAM (KSA) (human, UniProt P16422); assay: SPR
T1 chain: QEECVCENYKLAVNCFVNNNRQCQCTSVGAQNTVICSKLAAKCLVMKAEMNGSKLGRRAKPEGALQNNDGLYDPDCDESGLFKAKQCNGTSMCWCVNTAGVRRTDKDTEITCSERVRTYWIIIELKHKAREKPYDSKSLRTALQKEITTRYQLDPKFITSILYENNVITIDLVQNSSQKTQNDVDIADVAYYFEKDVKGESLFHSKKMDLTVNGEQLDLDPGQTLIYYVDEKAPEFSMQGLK

EpCAM (KSA) [2] = molecular target: T1, EpCAM (KSA); assay: SPR
EpCAM (KSA) [3] = molecular target: T1, EpCAM (KSA); assay: ELISA
EpCAM (KSA) [4] = molecular target: T1, EpCAM (KSA); assay: ELISA

B1: VK8/VH7-IL2 (antibody, V domains shown)
VH: QIQLVQSGAEVKKPGETVKISCKASGYTFTNYGMNWVKQTPGKGLKWMGWINTYTGEPTYADDFKGRFAFSLETSTSTAFLQINNLRSEDTATYFCVRFISKGDYWGQGTSVTVSS
VL: EIVLTQSPATLSLSPGERVTLTCSASSSVSYMLWYQQKPGSSPKPWIFDTSNLASGFPARFSGSGSGTSYSLIISSMEAEDAATYYCHQRSGYPYTFGGGTKLEIK
For B1, the Kd (EpCAM (KSA) [1]) was 1 nM.

B2: VK0/VH0 (hybridoma chKS-1/4) (antibody, V domains shown)
VH: B1 VH with A9P, V11L, K38R, T40A, A69V, T76A, I83L
VL: B1 VL with E1Q, V3L, T10I, L11M, L13A, R18K, L21M
Binder B2 has a Kd (EpCAM (KSA) [2]) of 1 nM.

B3: VK8/VH7 (Construct 3) (antibody, V domains shown)
VH: B1 VH
VL: B1 VL
In the case of B3, the Kd (EpCAM (KSA) [2]) is reported as 1 nM.

B4: '369 chKS-1/4 (VK0/VH'369) (antibody, V domains shown)
VH: QIQLVQSGPELKKPGETVKISCKASGYTFTNYGMNWVKQTPGKGLKWMGWINTYTGEPTYADDFKGRFAFSLETSASTAFLQIQQPQNMRTMATYFCVRFISKGDYWGQGTSVTVSS
VL: B1 VL with E1Q, V3L, T10I, L11M, L13A, R18K, L21M
B4: no binding (EpCAM (KSA) [3]).

B5: VK1/VH1-IL2 (antibody, V domains shown)
VH: QIQLVQSGPELKKPGSSVKISCKASGYTFTNYGMNWVRQAPGKGLKWMGWINTYTGEPTYADDFKGRFTITAETSTSTLYLQLNNLRSEDTATYFCVRFMSKGDYWGQGTTVTVSS
VL: QIVLTQSPASLAVSPGQRATITCSASSSVSYILWYQQKPGQPPKPWIFDTSNLASGFPSRFSGSGSGTSYTLTINSLEAEDAATYYCHQRSGYPYTFGGGTKVEIK
B5 was tested, and the Kd (EpCAM (KSA) [1]) was 7.9 nM.

B6: VK1/VH2-IL2 (antibody, V domains shown)
VH: B5 VH with M100I
VL: B5 VL
B6 was tested, and the Kd (EpCAM (KSA) [1]) was 3.1 nM.

B7: VK6/VH6 (Construct 1) (antibody, V domains shown)
VH: QVQLVQSGAEVKKPGESVKISCKASGYTFTNYGMNWVRQAPGKGLEWMGWINTYTGEPTYAQKFQGRVTISLDTSTSTAYLQLSSLRAEDTAVYFCVRFISKGDYWGQGTSVTVSS
VL: EIVLTQSPATLSLSPGERVTLTCSASSSVSYMLWYQQKPGQAPKLLIFDTSNLASGIPARFSGSGSGTDYTLTISSLEPEDFAVYYCHQRSGYPYTFGGGTKLEIK
B7: no binding (EpCAM (KSA) [4]).
